Among the data in a protein production outcome set (Wang et al. 2014) are protein production values, retold here.
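Further: failed if final PepcDB status was selected cloned or expressed and not failed if soluble or beyond.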

The nature of the series: label from the status in PepcDB records.
As to “MEVERLSLKEFCDMVAERKPTPGGGAVGSVVGAMACALAEMVANFTRKKKGYEDVEPEMERIVEAMEEARLKLFDLAKKDMEAFEKVMKAYKSSEGELQNALKEAASVPMDVIRVMKDLAHELEKLAEFGNKNLASDTLNAADLCHAVFQVEKVNVLINLKEISDETFRKNMLEELEEQEAQIEGCYQRVKKMLEGIVWSSK”, the protein production entry is on record as “not failed”.
Consider “MEVIREQEFVNQYHYDARNLEWEEENGTPKTNFEVTFQLANRDEAAKVTSIVAVLQFVIVRDEFVISGVISQMAHIQGRLINEPSEFSQDEVENLAAPLLEIVKRLTYEVTEIALDRPGVTLEFNS”, for which the protein production entry is listed as “not failed”.
The same measure for “MEVKMPFVVFVKRSVRFPGKHSYMIGGKSLLEIIVSKLSNIGKVYVFTKDKDIICNGCSIEFDTTNGIITDSVLAAIDKFGTFFAVAGDMPLIKPELVSKMLSQYKGSPLFPRHMDGMLEPLFGIYTEDLYNALKEYLDKGGESLHAFLLTQPLQYYDIGSDDEVNFININYKSDIEKYRDLLVQLLEHHHHHH”: “not failed”.
The value for “MEVKYLKDSEFLVLLLITTFVVITNVYFIAWDDSPQSWDPALHLTYSFVYFNLIKSLQFSEIVKVSNYYPPFFYLSSTPLYFLFGFSEDIAILTNLIYYFILIYSVFQIAKIMKDRNAGVISAVIISAFPALIKFQRVYMIDFALLSLTAFAILLYLRSEDFRNLKYSVLFGIVFGIAELTKWNAFVYIIPSIFALFLVNYFMRCPYCHQIVKNGWKVGYRRFCSKKHLKLYEKSAKTNNTMLNFAISLFVAFLFAAWWYLPNLSTVIMRLTYFANIGGKEGDPAFLTIQGWIYYANSILDAVGAVFLILFAVSIYYLYKNNRYLFLGLLTPIALIYIILTLLSNKDPRYIMPVLPFVAISIGVFVSSLANRKYSTILTFIILLFGLLNISALTFGQPDIDNKILPNPEHPKKEDWKIYALLEAIKESGGEGKIVVVLPDHPYLNGQSLNFYRLKEGYKFAIYNGVYIGYEAFVHNFDKITYIILIEPREHKGVYGDIEKKLYEFFYERKDNFEVVKVFDLPDNSKLYIYKRT” was “failed”; that for “MEVMRGVRVIEGMNGGRFPYCNVVVVGDVVIDAGAGLEVMRKVNASLLVLSHLHPDHSSGAWLFKDVLAPAEGRITLDTLARRFVAPDLVESWKRFISAATGLREFECERYEEGVVVKEPEIVAVPVKGHTMDHHVFLIEQKVLFGADVDLTSFGPFYGNPEADPYLFEREMDKLLDIDFEIFVSAHSKPVFGKEEAEGRILEFKRKIKEREEIILSLLEEPKSLDELVELSPIYGRKPYAKEILDFFERVMIEKHIEKLEMEGRVRKEDGKYVRV” was “failed”; that for “MEVPMDCPGCENKVRKALEKMNGVHDVQIDIKQQRVTVTGSAEQKKVLKVARNVTKRDICLWSYPYHPESNGYNDRYFKKKFRKRINMSVNGEKVSSYNYHKHGYHGHEHGYYQERPYSGLINPSASSMFSEENPHFCSIM” was “failed”.
For the sequence “MEVRGYKTEVALGKSSNSLLAGGLERRWQRLSGGCLGLLLMLPAVAAAAVYVPNAGQAMRDIQATQPALPEQPAPELDLPAKPPSAPAQAPDTSGIRLQVNDFVIVGNQVFSNETLQALLADLKGQELDLNQLRAAAERLTTYYQNQGYMLARAFLPAQDIEDGVVRIEVMEGRYGRIQVNNQSRALNSVITGPLSSLHSDTAVRSEDLERSLLLLSDLPGVRVKGTLSAGEQRGTTDLLVNAQPGPWASGTLEADNFGGYYTGEYRLGGSLNLNNPLRLGDQFNLRLLGSDEDQRYYRAAYKLPLGPWSTSVGVAYSRMNYELSRDFEVLEAHGQASIGSVFITQPLIRSRTFDLSAQLQYEDKRLRDDIDLFEVSSQKHVELWSLSLNGNSQDSLLGGGQNFFYLTYGSGRLSIDDPMDQWRDHFTAGTNGGFQKLNLNAARLQYLSPRFQLYGQFNGQWSSTNLDSSEKFGIGGPFDVRAYPQGTSSGDQGWQASLELRFLLAPRWQLKAFVDHGAVQVNKSPWIHDENRRQLSGAGVGASWSGPSQQISVTSAWALDNNQEGSGPERTPRIWASATQYF”, the protein production entry is on record as “failed”.
For the sequence “MEVSKIRIHDLPEEERPRERLIKNGPESLSNAELLGIVLRTGSREENVISLCSRILMEYNIKQLSLANVSKLMQVNGIGKAKAAQIAAVFELARRLETFVEEPKRKISSPKDVYTLMYPKMREQKKEKFITLYLDTKNQILKEEVVSIGSLNASIVHPREVFKSALMESSASVIMVHNHPSGDPSPSREDIMVTEKLVEGGKLLGIDILDHIIIGDGRYVSLKDEGFVK”, the protein production result is on record as “not failed”.
For “MEVSSFSTVPRYCNSRSFVPELSRFRGFKVHLWDQSLVPLHFSIRKRKNTPRYLISCSQKKDVTVVDGSCMDEIYDKLAERLVPTAAAMFSPNLKRLVGLAGPPGAGKSTVANEVVRRVNKLWPQKAASFDAEVNPPDVAIVLPMDGFHLYRSQLDAMEDPKEAHARRGAPWTFDPALLLNCLKKLKNEGSVYVPSFDHGVGDPVEDDIFVSLQHKVVIVEGNYILLEEGSWKDISDMFDEKWFIDVNLDTAMQRVENRHISTGKPPDVAKWRVDYNDRPNAELIIKSKTNADLLIRSMNI”, the protein production result is “failed”.
The value for “MEVVVVGDAQAMAGRVPTVMHVRCPDRLREGVYRQVLELLTDLSPVVQALPPTAALVELKGALRYHGSEVHRLGEVLRVRTLSRLGVDVRVGIGPSITIAATASAQVPLPGGVLTVAPDDVTDWLAPLPGEALHGLGPRQAGALHEYGIHTVGLLAAVSPETVQRLLGGKAGRLAADRARGRDPRPVVPRALPAAATVRMRFDRHVLDGADVRAALLDLVVQLGRLLRRRGQAARAVSLTLQFAGGGSWEKSRRLPEPSAHDEDLRTMAYRLIDAAGLQRGRLTGLFLKADDLVDADRVAQQISLDQAREARLVAEATVDRVRDKFGPGVIGPAATARRAS” was “failed”; that for “MEVYTTENEQVDVLRRFLAENGKALVVGVVLGVGALVGWRFWQSHQNDSVQAASASYQQVTEQLAEGKAEAIASTEKFTAENKNTYGALASLELARHYVDQKDFAKAVQQLVQAQSQTKDADLLAVVNLRLARVQLQENKADDALKTLDAIKLEGWASQAAEVRGDILASKGDNQAARDAYNKGLSSNPSQAQQALLRMKLNNLSS” was “failed”.
For the sequence “MEWGGLDERQICWQVNGRGGQGLAGCSFLRGVRKRSRPPRLLPSRPPAAMSTFERHIIKRLLKGFVLFVGALLVFFIVLHWVEYSDDFLDGGATIWEVFTVFYPNYVPEIIRLTSPLALFLSCIYLTGTLAQELQLVALQTSGVSLYQLMRPYLGVGLLVTVFMFGFNGWVVPKTNEVVVRYENEYLPGNQKSVQTSEIHRRNGPNSILSVGYYDADRERAHTVSLQQLAGDARLARRVDANRMEWDDSLEVWRLDDVTRRTFVKGETQRKRTIASLDTTLQVYPRDLARSKNDVAAMTIPAAAEYLAALRRSGVGGLTRPLVAYYNKFAYPFANLLLVLIGVPIASTRRRGGQAVRFAIGLLIAFVYLSVQKLAEPLGYAGTLSPAWTAWLPHLTFAVVALLVLWWARK”, the protein production entry is recorded as “failed”.
As to “MEWKLERTAPRRVRTEEEMLWESIMRVLSKDLKQKRSQDSANVLDSVNATYSDFKSNFAKRLSAEVPVASSPITTRWQQSQTRALSSDSFGEEQSTTYLPEASGSVLKTPPEKETLTLGSCKEQLKTPSKGISETSNSALHFCKAPHAMDRDWKESVASKGQKCLKQLFVTQNVVQQANGKMQLCEQSECVWKGCKDGVRDESFHLKSSGDINDSILQPEVKIHITGLRNDYYLNILDWSFQNLVAIALGSAVYIWNGENHNGIENIDLSLTCNYISSVSWIKEGTCLAVGTSEGEVQLWDVVTKKRLRNMLGHLSVVGALSWNHFILSSGSRLGRVYHHDVRVAQHHVGTLRHKQAVCALKWSPDGRLLSSGCSDGLLTIWPHDPGASAQGQPLKVITQSTAVKAMDWCPWQSGVLAIGGGMKDGRLHILDINAGKSIQTPSTNSQICSLIWLPKTKEIATGQGTPKNDVTVWTCPTVSRSGGFFGHRGRVLHLALSPDQTWVFSAAADGTASVWNCY”, the protein production result is recorded as “failed”.
The same measure for “MEWLEQLLGKEWSLVPAGGVTGDAYIAQNGQQKLFLKRNTSPFLAVLSAEGIVPKLLWTRRVTNGDVISAQKWLPGQKLEPEDMKLERVAKLLKKIHSSKALVQMIQRLGKQPLHAQELLQQLQLVLRGDIRDEETIQQGLQYLMDSLKDIEYNEFVVCHCDVNHNNWLLSDEDELFLIDWDGAVIADPALDLGMLLYWYIPRQEWSEWLGYYDIEMDESLLKRMRWYVIAQTILSIQWHTTKKQQAEAEYWHQYLQQLLASE”: “failed”; for “MEYALLQHYWWFLVSLLGALLVFLLFVQGGQSFLFSLGKDELTQKMMVNSTGRKWEFTFTTLVTFGGALFASFPLFYSTSFGGAYWVWMLILFCFIIQAVSYEYQSKHGNVWGRKTYQILLFINGVLAPVLLGTAVSTFFTGSSFVVNKMAMFDLSGGNQIVSAWQPFNGWQLRGLEAVLNLWNVVLGLAVFFLARVSALLYFINNIDDESLYAAAKRRLWANTVAFLIFFLAYIAFLLTTEGFAVNPVSKEVYMEPYKYLYNFLDMPAVLAVFLLGVILVLGGIGLTLLRKGFKRGIWLHGTGTVLTVLALLLVAGWNDTSWYPSTYDLQSSLTIENASSSHFTLKVMSYVSLLIPFVLAYIFYAWRALDIRKITKKEMEQDDHVY”: “failed”.
Consider “MFCEKAMELIRELHRAPEGQLPAFNEDGLRQVLEEMKALYEQNQSDVNEAKSGGRSDLIPTIKFRHCSLLRNRRCTVAYLYDRLLRIRALRWEYGSILPNALRFHMAAEEMEWFNNYKRSLATYMRSLGGDEGLDITQDMKPPKSLYIEVRCLKDYGEFEVDDGTSVLLKKNSQHFLPRWKCEQLIRQGVLEHILS”, for which the protein production result is reported as “failed”.
The value for “MFCLMSKEYLSWDKFIVTKIPSSVKLDPIIYEYIKKDHLILDIGCGVGKVSLQLAFQGFYVEGIDINETGILAAQDSARKLNLADKAHFRVGDAKDLPYMDDKFDIVIMHGLLTIIVDNSDRNKIIQEAYRVLNPEGHLYIVDFGQTWHSDIYRERYLKDFPITKEEGSFLVYNKDTGEIEFISHHYTEKELIFLLVNNGFKIDYFRDFLLFSGFSFSLYIVQNNKILIILIYFFYLWEKETLQ” was “failed”; that for “MFDIGWSELLVIAVVLIVVVGPKDLPPMIRAFGKTMAGLRKMAGDFRTQFDEALKEADMDDVRQTISDVRNLNPTNSLRDAMNPLRQLGNEIKSDLQKATSPSDGLSSTAAPATSEPVAPLVNVPEPDMKLPDSPPAVAAAPAPVAAASVAAEKPKRARAKSIATVEAEAVAAKPKRVSRSKAVATPETTVATNASEPASPKPTVKTIAKKATVKKIAAEKSVAVADAKPAKAARTKAAKPKKDEA” was “failed”.
The same measure for “MFDPKLLPATRKILDLPARLLVRVGVSADQVTITGFIIGLLAVPFLAFELYEFALAAILLNRLCDGLDGAVARRTQLTDAGGFLDIVLDFIFYSAVVFGFLLASPEQNAIASGLLLVTFMGTGSTFLAFACIAGKRGIENPEYPNKSLHYMGGLTEGFETILAFVAFCLWPQHFSVLAYIFAAACWLTAITRIVAGYRTLKQPGAKPESTNV”: “not failed”.
The same measure for “MFDRLKTMLIKEAIQILRDPKMRFIILVIPAIQITLFGYAVNTDVKHIATAVYDLDNSALSRDLVARLERSGYFDIVQRVQRGDELRDLLDRGKVRAAVQINRGFEENIRAGRTATLPIIVDGTDPSTARIVVSYSVTIAERFSDQILTDYSLRKSGRTTGGNGIELESRAWFNANLESRNYYVPGVIASMVLITTMMLSSMAVVREKEIGTMEQIIVTPIQRWEFIVGKLVPFAIVGYINVTIVTCIALFWFKIPLRGSILLLIGSTALFLMSTLGFGLLISTISRTQQQAMMSSFMFTFPAMLLSGFAFPIENMPTSIQYATYLNPLRYYLVIVRGIFLKGIGLGILWPQLAALALLGSVVLLFAVGRFKKSVG”: “failed”; for “MFDVAVFGSLFLTLFVIMDPPGITPIFLALTAGRPAKVQKRMAFQAVCVAGGVITVFGLLGHQILDYLHVSVPALMIAGGLLLLLIALDLLTGKTDEPKQTKDVNVALVPLGMPLLAGPGAIVSVILAVQKAGSVATQVSVWAAILAIHVVLWVVMRYSLLIIRVIKDGGVVLVTRLAGMMLSAIAVQQIINGVTQVIRGS”: “failed”.
